According to IntAct's records for PubMed 30017192:

Tests used:
kpca_human PRKCA = kpca_human PRKCA (UniProt P17252)
kapca_human PRKACA = kapca_human PRKACA (UniProt P17612)

Q: Which results are given for “Serine/threonine-protein kinase pim-1 (Homo sapiens), P11309-2 K158R”?
A: effect of a mutation on the interaction (kpca_human PRKCA): with no effect; effect of a mutation on the interaction (kapca_human PRKACA): with no effect
